According to patent publication US20250206841A1 (ADEPT THERAPEUTICS, published 2025):
Where a chain is given by its changes, count along the chain named.

T1: human Trop-1 (EpCAM) (human, UniProt P16422 24-265, limits assumed)
T1 sequence (looked up): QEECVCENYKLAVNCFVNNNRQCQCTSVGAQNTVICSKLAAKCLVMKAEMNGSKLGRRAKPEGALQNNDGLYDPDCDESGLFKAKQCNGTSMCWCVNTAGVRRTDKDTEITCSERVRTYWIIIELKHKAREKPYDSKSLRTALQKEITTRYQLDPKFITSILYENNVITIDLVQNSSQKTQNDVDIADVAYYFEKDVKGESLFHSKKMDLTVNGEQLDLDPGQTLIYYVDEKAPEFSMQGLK

T2: mouse Trop-2 (mouse, UniProt Q8BGV3 25-270, limits assumed)
T2 construct: also called Kactus Cat #TRP-MM121
T2 sequence (looked up): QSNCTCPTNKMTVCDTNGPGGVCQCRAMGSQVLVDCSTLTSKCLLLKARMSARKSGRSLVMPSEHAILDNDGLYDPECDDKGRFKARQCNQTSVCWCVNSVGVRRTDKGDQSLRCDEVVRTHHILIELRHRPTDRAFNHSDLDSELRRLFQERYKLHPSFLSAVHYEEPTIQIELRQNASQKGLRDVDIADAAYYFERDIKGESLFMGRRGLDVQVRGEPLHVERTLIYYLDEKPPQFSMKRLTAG

T3: human Trop-2 expressed on cell surface (human, UniProt P09758 27-323)
T3 sequence (looked up): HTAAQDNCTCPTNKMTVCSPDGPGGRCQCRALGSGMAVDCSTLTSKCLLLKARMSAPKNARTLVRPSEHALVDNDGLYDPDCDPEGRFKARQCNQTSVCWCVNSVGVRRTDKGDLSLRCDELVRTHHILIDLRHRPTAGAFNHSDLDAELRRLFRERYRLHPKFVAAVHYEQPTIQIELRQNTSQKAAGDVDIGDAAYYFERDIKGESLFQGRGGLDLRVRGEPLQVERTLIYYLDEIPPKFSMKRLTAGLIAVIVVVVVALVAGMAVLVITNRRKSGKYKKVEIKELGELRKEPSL

T4: human Trop-2-His protein (human, UniProt P09758 27-274)
T4 construct: extracellular domain; Assay paragraphs say only 'Trop-2-His'; also called hTrop-2; Kactus Cat #TRP-HM121; not shown: His tag
T4 sequence (looked up): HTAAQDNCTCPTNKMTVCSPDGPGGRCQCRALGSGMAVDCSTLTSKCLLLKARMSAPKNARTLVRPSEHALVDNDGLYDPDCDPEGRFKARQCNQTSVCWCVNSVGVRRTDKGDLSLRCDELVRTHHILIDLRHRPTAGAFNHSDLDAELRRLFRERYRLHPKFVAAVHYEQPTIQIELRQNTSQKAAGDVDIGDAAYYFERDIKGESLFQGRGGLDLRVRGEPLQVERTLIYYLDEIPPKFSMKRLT

T5: cynomolgus Trop-2-His protein (cynomolgus, UniProt P09758 27-274 (human entry))
T5 construct: also called cynmolgus Trop-His; Kactus Cat #TRP-CM121; not shown: His tag
T5 chain: T4 sequence (looked up) with M36V, S67N, G139S, I204V

B1: 1D10 (antibody, V domains shown)
VH: QEQLKESGGGLVQPGGSLTLSCKASGFDFNYYGVSWVRQAPGKGLEWIGYIYPAYHNTYYATWVNGRFTISSHNAQNTLYLQLNTLTAADTATYFCARDAGSTDYNLNLWGPGTLVTVSS
VL: DVVMTQTPASVEVAVGGTVTIKCQASEDIESYLAWYQQKPGQPPRLLIYEASKLASGVSSRFSGGGYGTDFTLTISGVECADAATYYCHQALTIGNVDNPFGGGGEVVVK
notes: Rabbit-derived clone; LEM construct: VH + rabbit IgG CH1 + human IgG1 CH2-CH3
B2: 72F12 (antibody, V domains shown)
VH: B1 VH with T19K, Y31N, G49A, Y55F, T85S, T103V, L107F
VL: DVVMTQTPASVEVAVGGTVTIKCQASKNIDSNLAWYQQKPGQPPKQLIYAASTLASGVSSRFSGSGYGAEFTLTISGVECADAATYYCQQALTIGNVDNPFGGGSEVVVK
notes: as for B1
B3: 9F7 (antibody, V domains shown)
VH: B1 VH with Y31N, A100T, L107F
VL: B1 VL with R45K, D70E, H89Q, I94V, G105S
notes: as for B1
B4: 62E3 (antibody, V domains shown)
VH: B1 VH with T19K, Y31E, G49A, Y55F, S102T, L107F
VL: B1 VL with P8A, A9S, S10P, E12S, V13A, R45K, G65S, D70E, H89Q, G105S
notes: as for B1
B5: 9D7 (antibody, V domains shown)
VH: QSLEESGGDLVQPGASLTLTCKASGFDLNNYSILWVRQAPGKGLEWIGCIYISGGSTYYANWAKGRFAISKTSSTTVTLQMTSLTAADTATYFCARDDGTASYYLNLWGPGTLVTVSS
VL: YDMTQTPASVSEPVGGTVTIKCQASEDIYKLLAWYQQKPGQPPKLLIYAASDLESGVPSRFKGRGSGTDYTLTISDLECADAATYYCQQAYTIGNIDNSFGGGTEVVVK
notes: as for B1
B6: 9D7-2 (antibody, V domains shown)
VH: B5 VH with C49S
VL: B5 VL with C79A

target: T1, human Trop-1 (EpCAM); experiment: ELISA, similar to Table 24
Procedure: (§1) Purified antibodies were tested by ELISA to confirm their binding and affinity against human and cynomolgus Trop-2-His protein. Briefly, 96-well Maxisorp plates (Nunc) were coated with 100 μl/well of 0.5 μg/ml human (Kactus Cat #TRP-HM121, or Sino Biological, Cat #10428-HO8H) or cynomolgus Trop-2 protein (Kactus Cat #TRP-CM121, or Sino Biological, Cat #90893-CO8H) diluted in 1×PBS (GIBCO) overnight at 4° C. Plates were washed four times with 300 μl/well washing buffer (1×PBST, diluted from 20×PBST (Thermo Scientific) with distilled water)) and then blocked with 300 μl/well of blocking buffer (1×PBST/3% BSA (BSA, Sigma)) for 2 hours at RT on plate shaker at 100 rpm. Plates were washed and added with 100 μl/well of testing antibodies, which were serial diluted with assay buffer (PBST/1% BSA). The antibodies were incubated at room temperature for 2 hours on plate shaker at 100 rpm. Plates were washed. One hundred microliters (100 μl) of 1:10,000 diluted horseradish peroxidase (HRP) conjugated anti-hIgG antibody (Jackson Immuno Research) was added into each well and incubated at room temperature for 1 hour on plate shaker at 100 rpm. Plates were washed and added with 100 μl/well TMB substrate for color development in dark at room temperature for up to 10 minutes. After addition of 50 μl/well of stop solution (1N H₂SO₄), plates were read at 450 nm on a plate reader (SpectraMax M5). EC₅₀ values were calculated using Graphpad Prism. Sacituzumab govitecan, was used as positive control. Anti-HEL.hIgG1 was used as isotype control.
(§2) Similar assays were performed to test whether the exemplary antibodies of the present disclosure bind to human Trop-1 (EpCAM) or mouse Trop-2 (Kactus, Cat #TRP-MM121) or rat Trop-2 (kactus, Cat #TRP_RM121). No binding of the exemplary antibodies of the present disclosure to human Trop-1 (EpCAM) or mouse or rat Trop-2 has been detected.

| binding result | Binder |
| --- | --- |
| no binding | B1 |
| no binding | B2 |
| no binding | B3 |
| no binding | B4 |
| no binding | B5 |
| no binding | B6 |

target: T2, mouse Trop-2; experiment: ELISA, similar to Table 24
Procedure: as §1, §2

| binding result | Binder |
| --- | --- |
| no binding | B1 |
| no binding | B2 |
| no binding | B3 |
| no binding | B4 |
| no binding | B5 |
| no binding | B6 |

target: T3, human Trop-2 expressed on cell surface; experiment: cell-based or functional assay

| EC50 of ADCC (NFAT-CD16 reporter), MCF-7 [nM] | EC50 of ADCC (NFAT-CD16 reporter), MDA-MB-231 [nM] | Binder |
| --- | --- | --- |
| 0.28 | 0.04 | B1 |
| 0.16 | 0.07 | B2 |
| 0.18 | 0.03 | B3 |
| 0.4 | 0.04 | B4 |
| 0.28 | 0.09 | B5 |
| 0.23 | 0.11 | B6 |

target: T4, human Trop-2-His protein; experiment: ELISA, coated Trop-2 protein
Procedure: as §1

| EC50 [nM] | Binder |
| --- | --- |
| 0.016 | B1 |
| 0.013 | B2 |
| 0.033 | B3 |
| 0.018 | B4 |
| 0.017 | B5 |
| 0.02 | B6 |

Target: T5, cynomolgus Trop-2-His protein
Experiment: ELISA, coated Trop-2 protein
Procedure: as §1

| EC50 [nM] | Binder |
| --- | --- |
| 0.017 | B1 |
| 0.013 | B2 |
| 0.03 | B3 |
| 0.016 | B4 |
| 0.016 | B5 |
| 0.014 | B6 |

target: T3, human Trop-2 expressed on cell surface; experiment: cell-based or functional assay; remark: another data set of the same source

| Internalization %, MCF-7, 0.25 µg/ml, 1 h [%] | Internalization %, MCF-7, 0.25 µg/ml, 2 h [%] | Internalization %, MCF-7, 0.25 µg/ml, 4 h [%] | Internalization %, MCF-7, 0.5 µg/ml, 1 h [%] | Internalization %, MCF-7, 0.5 µg/ml, 2 h [%] | Internalization %, MCF-7, 0.5 µg/ml, 4 h [%] | Binder |
| --- | --- | --- | --- | --- | --- | --- |
| 30 | 56 | 49 | 44 | 54 | 65 | B1 |
| 21 | 37 | 47 | 24 | 39 | 48 | B2 |
| 2 | 31 | 36 | 29 | 44 | 49 | B3 |
| 23 | 39 | 45 | 21 | 41 | 40 | B4 |
| 42 | 75 | 69 | 46 | 60 | 65 | B5 |
| 29 | 42 | 57 | 28 | 42 | 52 | B6 |

target: T4, human Trop-2-His protein; experiment: BLI (Gator Plus), purified Ab on HFC probe
Procedure: The affinity of the binding of the exemplary anti-Trop-2 antibodies of the present disclosure were determined. Assay was performed using Gator Plus according to the protocol recommended by Gator Bio Inc.. Briefly, human Trop-2-His (Kactus) was 1:4 fold serially diluted starting at 1 μg/ml. After three times of regeneration and neutralization of HFC probe, 1 μg/ml of antibody to be tested in Q buffer was immobilized onto HFC probe. […] The association and dissociation of human Trop-2-His antigen from antibody was measured on BLI machine Gator Plus. Affinity was calculated using Gator Bio analysis software. Blank control was used for reference subtraction. Sacituzumab govitecan was used as positive control.

| Kd [nM] | koff [s⁻¹] | kon [M⁻¹ s⁻¹] | Binder |
| --- | --- | --- | --- |
| 0.22 | 0.000131 | 604000 | B1 |
| 0.63 | 0.000541 | 865000 | B2 |
| 0.04 | 2.8e-05 | 634000 | B3 |
| 0.59 | 0.000429 | 726000 | B4 |
| < 0.002 | < 1e-06 | 432000 | B5 |
| 2.86 | 0.00126 | 438000 | B6 |
